Data published in article PMC5587847, “IPA1 functions as a downstream transcription factor repressed by D53 in strigolactone signaling in rice” (Cell Research, 2017).

Target: T1, HisTrx-D53 (rice (Oryza sativa L.), UniProt Q2RBP2 1-1131)
T1 construct: DWARF 53 (D53), rice; full-length CDS in an E. coli expression vector (pDEST51); also called HisTrx-D53 fusion protein; source: E. coli, purified
T1 sequence (looked up): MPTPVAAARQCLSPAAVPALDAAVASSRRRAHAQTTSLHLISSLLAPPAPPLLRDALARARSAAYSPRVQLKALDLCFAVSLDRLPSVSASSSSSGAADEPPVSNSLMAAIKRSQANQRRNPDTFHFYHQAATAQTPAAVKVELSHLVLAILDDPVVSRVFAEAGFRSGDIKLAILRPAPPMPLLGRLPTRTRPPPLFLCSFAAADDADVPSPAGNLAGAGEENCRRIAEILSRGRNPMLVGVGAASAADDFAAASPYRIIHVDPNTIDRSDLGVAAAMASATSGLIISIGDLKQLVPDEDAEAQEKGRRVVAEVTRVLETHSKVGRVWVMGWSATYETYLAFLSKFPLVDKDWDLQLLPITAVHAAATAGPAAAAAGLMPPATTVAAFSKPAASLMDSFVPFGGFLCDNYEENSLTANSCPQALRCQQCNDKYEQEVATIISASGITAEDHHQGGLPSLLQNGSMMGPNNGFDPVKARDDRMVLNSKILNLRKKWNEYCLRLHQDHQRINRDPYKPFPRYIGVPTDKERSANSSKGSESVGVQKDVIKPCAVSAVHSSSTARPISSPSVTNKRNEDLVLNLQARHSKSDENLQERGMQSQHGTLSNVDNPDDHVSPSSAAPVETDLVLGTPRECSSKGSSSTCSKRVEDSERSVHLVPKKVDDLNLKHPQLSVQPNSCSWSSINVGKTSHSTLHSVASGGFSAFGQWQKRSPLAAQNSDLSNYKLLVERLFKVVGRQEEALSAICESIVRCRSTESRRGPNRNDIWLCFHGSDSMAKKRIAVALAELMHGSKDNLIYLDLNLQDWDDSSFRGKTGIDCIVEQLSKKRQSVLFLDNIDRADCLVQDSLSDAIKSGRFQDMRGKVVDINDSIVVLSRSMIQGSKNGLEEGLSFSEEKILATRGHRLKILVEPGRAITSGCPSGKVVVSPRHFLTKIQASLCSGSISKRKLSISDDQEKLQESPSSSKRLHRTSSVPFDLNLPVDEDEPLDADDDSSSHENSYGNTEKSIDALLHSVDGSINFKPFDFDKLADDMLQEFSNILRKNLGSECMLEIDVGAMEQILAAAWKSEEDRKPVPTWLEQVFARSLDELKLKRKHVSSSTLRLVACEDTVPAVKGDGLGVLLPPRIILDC
Assay: pull-down; GST pull-down with HisTrx-D53 and GST-IPA1, both purified from bacteria; D53 detected by anti-D53
Conditions: both partners purified

binding result: binds
B1: GST-IPA1 (natural protein, rice (Oryza sativa L.), UniProt Q7EXZ2 1-417, looked up)
chain: MEMASGGGAAAAAGGGVGGSGGGGGGGDEHRQLHGLKFGKKIYFEDAAAAAGGGGTGSGSGSASAAPPSSSSKAAGGGRGGGGKNKGKGVAAAAPPPPPPPPRCQVEGCGADLSGIKNYYCRHKVCFMHSKAPRVVVAGLEQRFCQQCSRFHLLPEFDQGKRSCRRRLAGHNERRRRPQTPLASRYGRLAASVGEHRRFRSFTLDFSYPRVPSSVRNAWPAIQPGDRISGGIQWHRNVAPHGHSSAVAGYGANTYSGQGSSSSGPPVFAGPNLPPGGCLAGVGAATDSSCALSLLSTQPWDTTTHSAAASHNQAAAMSTTTSFDGNPVAPSAMAGSYMAPSPWTGSRGHEGGGRSVAHQLPHEVSLDEVHPGPSHHAHFSGELELALQGNGPAPAPRIDPGSGSTFDQTSNTMDWSL
notes: Ideal Plant Architecture 1 (IPA1, SPL14), rice; full-length CDS in pGEX-6p-1; source: E. coli (pGEX-6p-1), purified
